Assay results taken from patent US20170015742A1 (published 2017).
Positions count from the first letter of the chain named.

B1: 4G8.5_GS_9E8.4 (bispecific antibody, human IgG1, kappa, L234A L235A)
heavy: EIQLVQSGSELKKPGASVKVSCKASGYTFTNYGMYWVRQAPGQGLEYMGWINTETGKPTYADDFKGRFVFSLDTSVSTAYLQISSLKAEDTAVYFCARTNYYYRSYIFYFDYWGQGTMVTVSSGGGGSGGGGSEVTLRESGPALVKPTQTLTLTCTFSGFSLSTYGMGVGWIRQPPGKALEWLANIWWDDDKYYNPSLKNRLTISKDTSKNQVVLTMTNMDPVDTATYYCARIESIGTTYSFDYWGQGTMVTVSSASTKGPSVFPLAPSSKSTSGGTAALGCLVKDYFPEPVTVSWNSGALTSGVHTFPAVLQSSGLYSLSSVVTVPSSSLGTQTYICNVNHKPSNTKVDKKVEPKSCDKTHTCPPCPAPEAAGGPSVFLFPPKPKDTLMISRTPEVTCVVVDVSHEDPEVKFNWYVDGVEVHNAKTKPREEQYNSTYRVVSVLTVLHQDWLNGKEYKCKVSNKALPAPIEKTISKAKGQPREPQVYTLPPSREEMTKNQVSLTCLVKGFYPSDIAVEWESNGQPENNYKTTPPVLDSDGSFFLYSKLTVDKSRWQQGNVFSCSVMHEALHNAYTQKSLSLSPGK
light: ATQLTQSPSLSASVGDRVTITCRASESVSTHMHWYQQKPGKQPKLLIYGASNLESGVPSRFSGSGSGTDFTLTISSLQPEDFATYFCQQSWNDPFTFGQGTKLEIKGGSGGGGSGGEFVLTQSPGTLSLSPGERATLSCERSSGDIGDSYVSWYQQKPGQAPRLVIYADDQRPSGIPDRFSGSGSGTDFTLTISRLEPEDFAVYYCQSYDINIDIVFGGGTKVEIKRTVAAPSVFIFPPSDEQLKSGTASVVCLLNNFYPREAKVQWKVDNALQSGNSQESVTEQDSKDSTYSLSSTLTLSKADYEKHKVYACEVTHQGLSSPVTKSFNRGEC
B2: 9E10.1_GS_9E8.4 (bispecific antibody, human IgG1, kappa, L234A L235A)
heavy: EIQLVQSGSELKKPGASVKVSCKASGYTFTNYGMYWVKQAPGQGLEYMGWIDTETGRPTYADDFKGRFVFSLDTSVSTAYLQISSLKAEDTAVYFCARWSGDTTGIRGPWFAYWGQGTLVTVSSGGGGSGGGGSEVTLRESGPALVKPTQTLTLTCTFSGFSLSTYGMGVGWIRQPPGKALEWLANIWWDDDKYYNPSLKNRLTISKDTSKNQVVLTMTNMDPVDTATYYCARIESIGTTYSFDYWGQGTMVTVSSASTKGPSVFPLAPSSKSTSGGTAALGCLVKDYFPEPVTVSWNSGALTSGVHTFPAVLQSSGLYSLSSVVTVPSSSLGTQTYICNVNHKPSNTKVDKKVEPKSCDKTHTCPPCPAPEAAGGPSVFLFPPKPKDTLMISRTPEVTCVVVDVSHEDPEVKFNWYVDGVEVHNAKTKPREEQYNSTYRVVSVLTVLHQDWLNGKEYKCKVSNKALPAPIEKTISKAKGQPREPQVYTLPPSREEMTKNQVSLTCLVKGFYPSDIAVEWESNGQPENNYKTTPPVLDSDGSFFLYSKLTVDKSRWQQGNVFSCSVMHEALHNAYTQKSLSLSPGK
light: DIRMTQSPSSLSASVGDRVTIECLASEDIYSDLAWYQQKPGKSPKLLIYNANGLQNGVPSRFSGSGSGTDYSLTISSLQPEDVATYFCQQYNYFPGTFGQGTKLEIKGGSGGGGSGGEFVLTQSPGTLSLSPGERATLSCERSSGDIGDSYVSWYQQKPGQAPRLVIYADDQRPSGIPDRFSGSGSGTDFTLTISRLEPEDFAVYYCQSYDINIDIVFGGGTKVEIKRTVAAPSVFIFPPSDEQLKSGTASVVCLLNNFYPREAKVQWKVDNALQSGNSQESVTEQDSKDSTYSLSSTLTLSKADYEKHKVYACEVTHQGLSSPVTKSFNRGEC
B3: 9E10.6_GS_CL-33675 (bispecific antibody, human IgG1, kappa, L234A L235A)
heavy: EVQLVQSGAEVKKPGSSVKVSCKASGYTFTNYGMYWVRQAPGQGLEWMGWIDTETGRPTYADDFKGRFTFTADKSTSTAYMELSSLRSEDTAVYYCARWSGDTTGIRGPWFAYWGQGTLVTVSSGGGGSGGGGSEVTLRESGPALVKPTQTLTLTCTFSGFSLSTYGMGVGWIRQPPGKALEWLANIWWDDDKYYNPSLKNRLTISKDTSKNQVVLTMTNMDPVDTATYYCARIESSGPKYSFDYWGQGTMVTVSSASTKGPSVFPLAPSSKSTSGGTAALGCLVKDYFPEPVTVSWNSGALTSGVHTFPAVLQSSGLYSLSSVVTVPSSSLGTQTYICNVNHKPSNTKVDKKVEPKSCDKTHTCPPCPAPEAAGGPSVFLFPPKPKDTLMISRTPEVTCVVVDVSHEDPEVKFNWYVDGVEVHNAKTKPREEQYNSTYRVVSVLTVLHQDWLNGKEYKCKVSNKALPAPIEKTISKAKGQPREPQVYTLPPSREEMTKNQVSLTCLVKGFYPSDIAVEWESNGQPENNYKTTPPVLDSDGSFFLYSKLTVDKSRWQQGNVFSCSVMHEALHNAYTQKSLSLSPGK
light: DIRMTQSPSSLSASVGDRVTITCLASEDIYSDLAWYQQKPGKSPKLLIYNANGLQNGVPSRFSGSGSGTDYTLTISSLQPEDVATYFCQQYNYFPGTFGQGTKLEIKGGSGGGGSGGEIVLTQSPGTLSLSPGERATLSCRASSGSIWYSFVSWYQQKPGQAPRLLIYADDQRASGIPDRFSGSGSGTDFTLTISRLEPEDFAVYYCQSYGINIDVVFGGGTKVEIKRTVAAPSVFIFPPSDEQLKSGTASVVCLLNNFYPREAKVQWKVDNALQSGNSQESVTEQDSKDSTYSLSSTLTLSKADYEKHKVYACEVTHQGLSSPVTKSFNRGEC
B4: 9E10.6_GS_9E8.4 (bispecific antibody, human IgG1, kappa, L234A L235A)
heavy: B3 heavy with S237I, P239T, K240T
light: B2 light with E22T, S72T
B5: 1B10.1_GS_9E8.4 (bispecific antibody, human IgG1, kappa, L234A L235A)
heavy: EVQLVESGGGLVQPGGSLRLSCAASGFSFSKYDMAWFRQAPGKGLEWVASITTSGVGTYYRDSVKGRFTVSRDNAKSTLYLQMNSLRAEDTAVYYCARGYGAMDAWGQGTTVTVSSGGGGSGGGGSEVTLRESGPALVKPTQTLTLTCTFSGFSLSTYGMGVGWIRQPPGKALEWLANIWWDDDKYYNPSLKNRLTISKDTSKNQVVLTMTNMDPVDTATYYCARIESIGTTYSFDYWGQGTMVTVSSASTKGPSVFPLAPSSKSTSGGTAALGCLVKDYFPEPVTVSWNSGALTSGVHTFPAVLQSSGLYSLSSVVTVPSSSLGTQTYICNVNHKPSNTKVDKKVEPKSCDKTHTCPPCPAPEAAGGPSVFLFPPKPKDTLMISRTPEVTCVVVDVSHEDPEVKFNWYVDGVEVHNAKTKPREEQYNSTYRVVSVLTVLHQDWLNGKEYKCKVSNKALPAPIEKTISKAKGQPREPQVYTLPPSREEMTKNQVSLTCLVKGFYPSDIAVEWESNGQPENNYKTTPPVLDSDGSFFLYSKLTVDKSRWQQGNVFSCSVMHEALHNAYTQKSLSLSPGK
light: DIQMTQSPSSLSASVGDRVTITCKASQDIDDYLSWYQQKPGKSPKLVIYAATRLADGVPSRFSGSGSGTDYTLTISSLQPEDFATYYCLQSSSTPWTFGGGTKVEIKGGSGGGGSGGEFVLTQSPGTLSLSPGERATLSCERSSGDIGDSYVSWYQQKPGQAPRLVIYADDQRPSGIPDRFSGSGSGTDFTLTISRLEPEDFAVYYCQSYDINIDIVFGGGTKVEIKRTVAAPSVFIFPPSDEQLKSGTASVVCLLNNFYPREAKVQWKVDNALQSGNSQESVTEQDSKDSTYSLSSTLTLSKADYEKHKVYACEVTHQGLSSPVTKSFNRGEC
B6: 1E3.4_GS_3E2.1 (bispecific antibody, human IgG1, kappa, L234A L235A)
heavy: EIQLVQSGSELKKPGASVKVSCKASGYPFTNSGMYWVKQAPGQGLEYMGWINTEAGKPTYADDFKGRFVFSLDTSVSTAYLQISSLKAEDTAVYFCARWGYISDNSYGWFDYWGQGTLVTVSSGGGGSGGGGSEVQLVQSGAEVKKPGSSVKVSCKASGYTFTESYMYWVKQAPGQGLELIGRIDPEDGSTDYVEKFKNKATLTADKSTSTAYMELSSLRSEDTAVYFCARFGARSYFYPMDAWGQGTTVTVSSASTKGPSVFPLAPSSKSTSGGTAALGCLVKDYFPEPVTVSWNSGALTSGVHTFPAVLQSSGLYSLSSVVTVPSSSLGTQTYICNVNHKPSNTKVDKKVEPKSCDKTHTCPPCPAPEAAGGPSVFLFPPKPKDTLMISRTPEVTCVVVDVSHEDPEVKFNWYVDGVEVHNAKTKPREEQYNSTYRVVSVLTVLHQDWLNGKEYKCKVSNKALPAPIEKTISKAKGQPREPQVYTLPPSREEMTKNQVSLTCLVKGFYPSDIAVEWESNGQPENNYKTTPPVLDSDGSFFLYSKLTVDKSRWQQGNVFSCSVMHEALHNAYTQKSLSLSPGK
light: ATQLTQSPSSLSASVGDRVTISCRASEGVYSYMHWYQQKPGKQPKLLIYKASNLASGVPSRFSGSGSGTDFTLTISSLQPEDFATYFCHQNWNDPLTFGQGTKLEIKGGSGGGGSGGETVLTQSPATLSLSPGERATLSCRASESVSTLMHWYQQKPGQQPRLLIYGASNLESGVPARFSGSGSGTDFTLTISSLEPEDFAVYFCQQSWNDPWTFGGGTKVEIKRTVAAPSVFIFPPSDEQLKSGTASVVCLLNNFYPREAKVQWKVDNALQSGNSQESVTEQDSKDSTYSLSSTLTLSKADYEKHKVYACEVTHQGLSSPVTKSFNRGEC
B7: CL-33675_GS_4G8.5 (bispecific antibody, human IgG1, kappa, L234A L235A)
heavy: EVTLRESGPALVKPTQTLTLTCTFSGFSLSTYGMGVGWIRQPPGKALEWLANIWWDDDKYYNPSLKNRLTISKDTSKNQVVLTMTNMDPVDTATYYCARIESSGPKYSFDYWGQGTMVTVSSGGGGSGGGGSEIQLVQSGSELKKPGASVKVSCKASGYTFTNYGMYWVRQAPGQGLEYMGWINTETGKPTYADDFKGRFVFSLDTSVSTAYLQISSLKAEDTAVYFCARTNYYYRSYIFYFDYWGQGTMVTVSSASTKGPSVFPLAPSSKSTSGGTAALGCLVKDYFPEPVTVSWNSGALTSGVHTFPAVLQSSGLYSLSSVVTVPSSSLGTQTYICNVNHKPSNTKVDKKVEPKSCDKTHTCPPCPAPEAAGGPSVFLFPPKPKDTLMISRTPEVTCVVVDVSHEDPEVKFNWYVDGVEVHNAKTKPREEQYNSTYRVVSVLTVLHQDWLNGKEYKCKVSNKALPAPIEKTISKAKGQPREPQVYTLPPSREEMTKNQVSLTCLVKGFYPSDIAVEWESNGQPENNYKTTPPVLDSDGSFFLYSKLTVDKSRWQQGNVFSCSVMHEALHNAYTQKSLSLSPGK
light: EIVLTQSPGTLSLSPGERATLSCRASSGSIWYSFVSWYQQKPGQAPRLLIYADDQRASGIPDRFSGSGSGTDFTLTISRLEPEDFAVYYCQSYGINIDVVFGGGTKVEIKGGSGGGGSGGATQLTQSPSLSASVGDRVTITCRASESVSTHMHWYQQKPGKQPKLLIYGASNLESGVPSRFSGSGSGTDFTLTISSLQPEDFATYFCQQSWNDPFTFGQGTKLEIKRTVAAPSVFIFPPSDEQLKSGTASVVCLLNNFYPREAKVQWKVDNALQSGNSQESVTEQDSKDSTYSLSSTLTLSKADYEKHKVYACEVTHQGLSSPVTKSFNRGEC

Target: recombinant human PDGF-BB (human, UniProt P01127 82-190)
Test: cell-based or functional assay

Sequence of recombinant human PDGF-BB (P01127 82-190 limits assumed): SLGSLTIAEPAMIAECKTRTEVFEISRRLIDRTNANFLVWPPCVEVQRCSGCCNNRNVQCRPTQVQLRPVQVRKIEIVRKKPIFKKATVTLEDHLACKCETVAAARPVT

In order of rising “Potency IC50 (nM) NIH-3T3 hPDGF-BB” value:
1. B7  0.035 nM
2. B3  0.037 nM
3. B5  0.678 nM
4. B4  1.14 nM
5. B2  1.91 nM
6. B1  4.83 nM
7. B6  6.25 nM

Target: recombinant human VEGF165 (human, UniProt P15692 207-395)
Test: cell-based or functional assay

Sequence of recombinant human VEGF165 (P15692 other isoform, or with tags, fused parts or gaps limits assumed): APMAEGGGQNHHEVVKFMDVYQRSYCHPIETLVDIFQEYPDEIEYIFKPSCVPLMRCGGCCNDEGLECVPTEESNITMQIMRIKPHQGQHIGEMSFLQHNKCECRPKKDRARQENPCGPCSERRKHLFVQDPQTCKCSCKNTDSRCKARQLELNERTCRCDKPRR

In order of rising “Potency IC50 (nM) HMVEC-d hVEGF165” value:
1. B6  0.043 nM
2. B4  0.049 nM
3. B3  0.05 nM
4. B2  0.059 nM
5. B1  0.069 nM
6. B5  0.127 nM
7. B7  0.219 nM
